According to publication PMC11812572, “NuMA is a mitotic adaptor protein that activates dynein and connects it to microtubule minus ends” (The Journal of Cell Biology, 2025):

B1: AF546- or AF647-labelled SNAP-tagged human NuMA N-terminal fragment (first 705 aa), NuMA^N-term (domain or fragment, UniProt Q14980-1 1-705, looked up)
chain: MTLHATRGAALLSWVNSLHVADPVEAVLQLQDCSIFIKIIDRIHGTEEGQQILKQPVSERLDFVCSFLQKNRKHPSSPECLVSAQKVLEGSELELAKMTMLLLYHSTMSSKSPRDWEQFEYKIQAELAVILKFVLDHEDGLNLNEDLENFLQKAPVPSTCSSTFPEELSPPSHQAKREIRFLELQKVASSSSGNNFLSGSPASPMGDILQTPQFQMRRLKKQLADERSNRDELELELAENRKLLTEKDAQIAMMQQRIDRLALLNEKQAASPLEPKELEELRDKNESLTMRLHETLKQCQDLKTEKSQMDRKINQLSEENGDLSFKLREFASHLQQLQDALNELTEEHSKATQEWLEKQAQLEKELSAALQDKKCLEEKNEILQGKLSQLEEHLSQLQDNPPQEKGEVLGDVLQLETLKQEAATLAANNTQLQARVEMLETERGQQEAKLLAERGHFEEEKQQLSSLITDLQSSISNLSQAKEELEQASQAHGARLTAQVASLTSELTTLNATIQQQDQELAGLKQQAKEKQAQLAQTLQQQEQASQGLRHQVEQLSSSLKQKEQQLKEVAEKQEATRQDHAQQLATAAEEREASLRERDAALKQLEALEKEKAAKLEILQQQLQVANEARDSAQTSVTQAQREKAELSRKVEELQACVETARQEQHEAQAQVAELELQLRSEQQKATEKERVAQEKDQLQEQLQ
modifications: SNAP-tag labelled with SNAP-Surface Alexa Fluor 546 or SNAP-Surface Alexa Fluor 647
notes: nuclear mitotic apparatus protein (NuMA), human, isoform 1 (NM_006185), first 705 aa; two stop codons inserted after aa 705; codon-optimised for S. frugiperda; A PreScission site lies between the SNAP-tag and NuMA; Dimeric by mass photometry; the construct described is SNAP-tagged; also called AF546-NuMA^N-term; AF647-NuMA^N-term; source: Sf21 insect cells (baculovirus), purified (StrepTrap, TEV …)
B2: mScarlet-tagged human NuMA C-terminal fragment aa 1560-2115, mScarlet-NuMA^(C-term L) (domain or fragment, UniProt Q14980-1 1560-2115, looked up)
chain: TSDQASKVQQQKLKAVQAQGGESQQEAQRLQAQLNELQAQLSQKEQAAEHYKLQMEKAKTHYDAKKQQNQELQEQLRSLEQLQKENKELRAEAERLGHELQQAGLKTKEAEQTCRHLTAQVRSLEAQVAHADQQLRDLGKFQVATDALKSREPQAKPQLDLSIDSLDLSCEEGTPLSITSKLPRTQPDGTSVPGEPASPISQRLPPKVESLESLYFTPIPARSQAPLESSLDSLGDVFLDSGRKTRSARRRTTQIINITMAKKLDVEEPDSANSSFYSTRSAPASQASLRATSSTQSLARLGSPDYGNSALLSLPGYRPTTRSSARRSQAGVSSGAPPGRNSFYMGTCQDEPEQLDDWNRIAELQQRNRVCPPHLKTCYPLESRPSLSLGTITDEEMKTGDPQETLRRASMQPIQIAEGTGITTRQQRKRVSLEPHQGPGTPESKKATSCFPRPMTPRDRHEGRKQSTTEAQKKAAPASTKQADRRQSMAFSILNTPKKLGNSLLRRGASKKALSKASPNTRSGTRRSPRIATTTASAATAAAIGATPRAKGKAKHLE
notes: NuMA, human, isoform 1 (NM_006185), aa 1560-2115: part of the predicted coiled-coil and the entire C-terminal tail; Mixed population of monomers and dimers by mass photometry; source: Sf21 insect cells (baculovirus), purified (StrepTrap, TEV cleavage, SEC); not shown: Strep-tag II, N-terminal, cleaved; mScarlet, N-terminal, kept

Target: the molecule itself
Test: mass photometry; TwoMP mass photometer; 5-20 nM protein in the respective TIRF microscopy assay buffer without methylcellulose; monomer to dimer

| Protein | stoichiometry N |
| --- | --- |
| B1 | 2 |
| B2 | 2 |
